Values of other authors as cited in article PMC10426772.

What was measured:
[1] = target: leptin receptor (Homo sapiens) (UniProt P48357); assay: radio-receptor assay
[2] = target: insulin receptor (HIR, brain capillary) (Homo sapiens) (UniProt P06213); assay: radio-receptor assay with [125I]-insulin
[3] = target: IGF receptor (IGF1R, brain capillary) (Homo sapiens) (UniProt P08069); assay: radio-receptor assay with [125I]-IGF2
[4] = target: IGF receptor (human BBB) (Homo sapiens) (UniProt P08069); assay: radio-receptor assay

insulin, sequence (P01308 90-110): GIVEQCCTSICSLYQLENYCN
leptin, sequence (P41159 22-167): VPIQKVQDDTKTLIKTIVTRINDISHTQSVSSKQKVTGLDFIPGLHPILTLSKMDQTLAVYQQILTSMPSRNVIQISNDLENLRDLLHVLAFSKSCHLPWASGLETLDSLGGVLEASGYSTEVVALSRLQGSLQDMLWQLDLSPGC
leptin receptor (Homo sapiens), sequence (P48357 22-839): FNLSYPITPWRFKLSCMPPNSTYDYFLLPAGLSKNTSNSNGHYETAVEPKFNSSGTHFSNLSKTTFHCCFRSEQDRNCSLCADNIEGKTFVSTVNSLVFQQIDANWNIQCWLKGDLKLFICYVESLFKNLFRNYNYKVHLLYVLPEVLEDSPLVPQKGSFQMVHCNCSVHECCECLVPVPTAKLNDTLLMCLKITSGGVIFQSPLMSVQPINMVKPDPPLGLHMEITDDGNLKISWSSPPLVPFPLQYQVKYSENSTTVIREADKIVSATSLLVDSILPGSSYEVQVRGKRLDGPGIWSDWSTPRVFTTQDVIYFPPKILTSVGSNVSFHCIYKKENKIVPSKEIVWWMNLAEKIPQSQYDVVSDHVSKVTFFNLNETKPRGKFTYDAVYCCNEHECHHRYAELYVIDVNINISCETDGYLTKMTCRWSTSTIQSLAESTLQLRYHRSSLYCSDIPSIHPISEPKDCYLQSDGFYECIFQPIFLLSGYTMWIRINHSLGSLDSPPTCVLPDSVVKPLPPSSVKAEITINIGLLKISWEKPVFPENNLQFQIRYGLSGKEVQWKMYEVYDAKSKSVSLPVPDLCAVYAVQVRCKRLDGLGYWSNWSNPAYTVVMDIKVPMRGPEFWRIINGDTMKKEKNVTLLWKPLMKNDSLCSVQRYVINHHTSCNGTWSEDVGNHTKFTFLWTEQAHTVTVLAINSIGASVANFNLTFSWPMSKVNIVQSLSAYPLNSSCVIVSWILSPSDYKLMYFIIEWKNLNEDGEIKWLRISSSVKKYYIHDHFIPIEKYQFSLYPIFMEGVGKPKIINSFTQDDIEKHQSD

leptin (from UniProt P41159)
Kd [1]: 5.1 nM

insulin (from UniProt P01308)
Kd [2]: 1.2 nM

IGF2 (from UniProt P01344)
Kd [3]: 1.1 nM | Kd [4]: 1.1 nM
